The results in this text go back to PMC7535908, “Dipeptidyl peptidase 3 modulates the renin–angiotensin system in mice” (The Journal of Biological Chemistry, 2020).

Assay [1] has as its target T1, purified recombinant human DPP3 (hDPP3) (Homo sapiens, UniProt Q9NY33).
T1 construct: made in house
T1 sequence (Q9NY33 1-737): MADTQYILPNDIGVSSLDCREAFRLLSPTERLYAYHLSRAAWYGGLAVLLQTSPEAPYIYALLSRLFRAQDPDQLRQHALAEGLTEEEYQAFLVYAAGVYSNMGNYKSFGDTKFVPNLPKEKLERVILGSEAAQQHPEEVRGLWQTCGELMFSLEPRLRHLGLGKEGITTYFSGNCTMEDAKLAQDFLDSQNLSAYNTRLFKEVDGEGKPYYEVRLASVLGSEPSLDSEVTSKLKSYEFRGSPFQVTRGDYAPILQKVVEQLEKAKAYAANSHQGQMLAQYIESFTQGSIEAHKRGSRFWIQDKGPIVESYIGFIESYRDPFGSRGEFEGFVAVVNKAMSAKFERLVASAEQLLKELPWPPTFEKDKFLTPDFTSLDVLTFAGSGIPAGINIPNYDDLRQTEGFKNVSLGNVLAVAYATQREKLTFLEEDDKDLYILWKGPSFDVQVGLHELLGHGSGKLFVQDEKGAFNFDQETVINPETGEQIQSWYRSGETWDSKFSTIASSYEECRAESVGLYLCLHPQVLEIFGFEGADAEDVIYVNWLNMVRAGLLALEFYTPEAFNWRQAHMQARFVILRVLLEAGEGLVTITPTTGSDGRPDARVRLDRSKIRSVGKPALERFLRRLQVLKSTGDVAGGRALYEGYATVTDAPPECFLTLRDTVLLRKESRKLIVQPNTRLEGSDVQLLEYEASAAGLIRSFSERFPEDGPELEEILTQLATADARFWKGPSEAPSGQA
The experiment in a line: Single-injection ITC enzyme kinetics of angiotensin peptide hydrolysis by hDPP3. In kind it is biochemical. The settings on record: for Substrate behaviour with DPP3 (heat signal, result in words): 5 µl of 2 mM peptide into 20 μM hDPP3, pH 8.0, 25 °C, no curve fitting possible for slow or poor substrates; for ΔH (enthalpy of interaction, heat of reaction) / kcat (maximum turnover number) / Km: 5 µl of 2 mM peptide into 200 µl of 20 μM hDPP3, 50 mM Tris-HCl pH 8.0, 100 mM NaCl, 25 °C, means ± S.D., three or more technical replicates from two biological replicates; for kcat (maximum turnover number) / Km: Michaelis–Menten fit, SD; for Km: read-out: Km (Michaelis–Menten constant). The text has this:
Thus, we investigated the activity of DPP3 against different angiotensin peptides. Kinetic parameters of angiotensin peptides were obtained by single-injection calorimetry measurements that are based on the exothermal hydrolysis of peptide bonds by purified recombinant human DPP3, which shares 93% sequence identity with the mouse DPP3. […] The graphs show the rate of angiotensin conversion as a function of its concentration. The insets depict the raw data of heat change caused by the conversion of substrate peptides.
Figure 9. […] The reaction was started by injecting 5 µl of 2 mM angiotensin peptides to the calorimetric cell containing 20 μM hDPP3. The data represent three or more technical replicates from two biological replicates.
Calorimetric activity of six different angiotensin peptides as purported substrates of DPP3 were further assayed using a MicroCal PEAQ-ITC (Malvern Panalytical Ltd., Malvern, UK). […] For this, the single-injection method was used, in which 5 µl of 2 mM angiotensin peptide was titrated into 200 µl of 20 μM purified hDPP3. The purification of recombinant hDPP3 was done as described in Ref. [35]. Both the ligand and the purified protein were prepared in 50 mM Tris-HCl at pH 8.0 containing 100 mM NaCl. The experiments consisted of a single injection of the ligand continuously over a period of 10 s, including an initial delay of 180 s before the injection and a spacing of 300 s after the injection. The experiments were performed at 25 °C with a stirring speed of 500 rpm. The thermodynamic characterization of this binding interaction was obtained using MicroCal PEAQ-ITC analysis software.

Assay [2] deals with T2, purified recombinant human DPP3 (dipeptidyl peptidase 3) (human) (UniProt Q9NY33).
T2 sequence: T1 sequence (Q9NY33 1-737)

“Ang I: angiotensin peptide (1–10), commercially purchased (Bachem), tested as purported substrate of DPP3 (DRVYIHPFHL)”: the “Substrate behaviour with DPP3 (heat signal, result in words)” value (shortened to “Substrate behaviour with DPP3”) in assay [1] is given as “poor substrate”.
On to “Ang III: angiotensin peptide (2–8), commercially purchased (Bachem)”, for which the “Substrate behaviour with DPP3” value in assay [1] is “both endothermic and exothermic behavior”.
The same measure, in the same setting: for “Ang IV: angiotensin peptide (3–8), commercially purchased (Bachem)” the value was “both endothermic and exothermic behavior”.
With “Ang(1–5): angiotensin peptide (1–5), commercially purchased (Bachem) (DRVYI)”, in assay [1], the “Substrate behaviour with DPP3” value was ““good” substrates”; the “ΔH (enthalpy of interaction, heat of reaction)” value is -1.84 ± -0.04 kcal/mol; the “kcat (maximum turnover number)” value worked out at 0.35 ± 0.002 s⁻¹; the Km – broadly, the concentration of substrate that gives half-maximal velocity – came to 12.5 ± 2.2 µM.
Turning to “Ang(1–7): angiotensin peptide (1–7), commercially purchased (Bachem), main metabolite of the alternate RAS”, in assay [1], the “Substrate behaviour with DPP3” value is ““good” substrates”; the “ΔH (enthalpy of interaction, heat of reaction)” value is -1.52 ± -0.10 kcal/mol; the “kcat (maximum turnover number)” value was determined as 0.14 ± 0.003 s⁻¹; the Km came to 1.95 ± 0.2 µM.
In the case of “angiotensin (1–5), Ang(1–5) (from UniProt P01019 25-29) (peptide)”, in assay [2], the Km, single-injection ITC enzyme kinetics (hydrolysis of the peptide by hDPP3) worked out at 12.5 µM; the kcat, single-injection ITC enzyme kinetics (hydrolysis of the peptide by hDPP3) is 0.35 s⁻¹; the ΔH (enthalpy of interaction, also called heat of reaction), single-injection ITC is -1.84 kcal/mol.
Take “angiotensin (1–7), Ang(1–7) (from UniProt P01019 25-31) (peptide)”: in assay [2], the Km, single-injection ITC enzyme kinetics (hydrolysis of the peptide by hDPP3) stood at 1.95 µM; the kcat, single-injection ITC enzyme kinetics (hydrolysis of the peptide by hDPP3) stood at 0.14 s⁻¹; the ΔH (enthalpy of interaction, also called heat of reaction), single-injection ITC was -1.52 kcal/mol.
Regarding “angiotensin II, Ang II (1–8) (from UniProt P01019 25-32) (peptide)”, in assay [2], the Km, single-injection ITC enzyme kinetics (hydrolysis of the peptide by hDPP3) stood at 8.4 µM and the kcat, single-injection ITC enzyme kinetics (hydrolysis of the peptide by hDPP3) turned out to be 0.25 s⁻¹.
As for tynorphin, the “Substrate behaviour with DPP3” value in assay [1] was ““slow” substrates”.
